This series in a line: soluble on expression in E. coli; label from the status in PepcDB or PDB records.
“MPPMRSKATQWLLSVWGLMDPLYYACSRLEYVGGKENGCRSIFRVRLLRYKGETIHLSDGTTIAANDWLLKIHLHNVRLLCELMQYRSDIQKGRYIFEQVKAGLPHVAHHLYHHEQSSSIKGIIGVTMLNKGCERLGFDVIDIANSFYRWFKMASHWPMMTVAQHRLVPLVRPPKYLVMSKEKLFSLYGCHLIH”: the “soluble on expression in E. coli” value was “not soluble”.

Turning to “MSEDQMKQQLVIDQKAVKETLQQMLTSDQGKKFWESALKDPKFAESFAKGLQAEHEKMMKALMKDPDYQALMIDILKDPEMEKAMVDVLKSKEFRQHLQKVITETLNSPLYQAKIQDMLMKAAEKVQQGGEKQEEEGGGEGGEGEGEESTGNQQGGGG”, the “soluble on expression in E. coli” value is given as “not soluble”.

As for “MAHHHHHHMKVKKKIVKKINKNSNVKIYKSSKHVNEVNNNTLTNNNEVKQNNEYYESFFIPKNLTEFNFKDNDKQLYYLMSLLNEIHDIFYIMLEQFKRKETNDENRDDQIYNYFLRYPVVRTILTQYRKQVLKGFTFNISLLSDDIKRSDFMDNIVKFGGLINNQDYNHLLTVNTFIENENIKNVSTSNLMWLERALYTWK”, the “soluble on expression in E. coli” value is on record as “not soluble”.

Take “MSDKRETRIKSVQNLAPVYNVRDDAKTRRRVALTQMLGRAYNQFNAGDDAAAEKLLEEVLRQDRSSIDAWTLRATIYSKRGDVVHSGEYYRKAAQLAPQRGDVLNNYGAWLCANGYPAEALVWFERAMADPAYGEQPGTLANSGGCALQAGQRDRADHDLRRALELDPSNAYALESMARNEYDKHRYFEARAFSERRLATTVPATASVLKLAIQIEQELGDRAAASRYQQRLVKEFPETVAVEPRG”: the “soluble on expression in E. coli” value is listed as “soluble”.

As to “MQVNFSSFLDNFFAMQVCREMTRNDVKFAISPQFLRISRHPHIP”, the “soluble on expression in E. coli” value was “not soluble”.

For the sequence “MSLNQTDLSASSTSSTSRPLVAVTGADGFIGSHLTEDLVRAGYRVRAMAIYNSQGSYGWLDTVPGEVMEHVEVQLGDVRDAGSVRALMRDVQTVYHLAALIAIPYSYVAPRSYVETNITGTLNVLEAARDLGTGRVIHTSTSEVYGTARSVPIHESHPLQGQSPYSATKIGADKLAESYFLSFGLPVVTLRPFNTYGPRQSARAVIPTIISQLAAGRTEIKLGDLRPTRDFNYVADTARAFRAVGEAGPEVLGRTLNAGSGREISVGDTVKLIAQVMGKDVEVKQEDERLRPEGSEVMRLLADHRELQTLTGWQPQVTLEEGLKRTAEWFTDAGNLARYRVDQYTEGHHHHHH”, the “soluble on expression in E. coli” value is listed as “soluble”.

In the case of “MPSVISTDVLIVGAGVAGLWLNARLRRQGFSTVLVESASLGGGQSLKSQGIIHGGAKYALHGALSGASEAIADMPRRWREALDGKGELDLSGVRLLSEAHYLWSPGTIAGNLTSFFASKAVRGRVDQVKGEQLPPALQNPKFKGKVYRLAELVVDVPSLIKRLAELAEDSLLAGQKIEPLYEADELIGLRVDGRDIHAQRIVLSAGGGTADLLNALGVSQPQMQRRPLHMVLVKGPTLKPLFAHCLGGGPKPRITVTTHPAADGQCVWYLGGDLAEADGVAREPDAQIAVARKELEALLPWVDLSQAQWATLRVDRAEPAQSGLVRPDNAFLDSQRRLMVGWPTKLALAPDFADRVLSHLSKDDIHPTPQAPLVDVPRPPLAIPVWDELLPLEHHHHHH”, the “soluble on expression in E. coli” value is on record as “not soluble”.

Consider “MKGDRLADIRTIGVVVLYRPDSSVLDAIASYRHQVHELIVVDNSEEQDHKLHSRLRDRFGATIVGEGRNLGIAAALNRAAREALAEGFDLLLTMDQDSRAEPGMVEQMLACLGSDWRERVGLIAPFHLTGARPAPGGTTPCSDVMTPMTSGCLVNLAAFREVGPFRDDFFIDFVDNEYCLRLRKKGFQVVRANRALLHHRVGDLRRYGPFVATHHSPLRRYYKTRNRCAVFAEYLRDFPVHCLFDLVRLGKEVASILIFEREKTAKLRMMWRGFLDFRRGRFGPYGGLEHHHHHH”, for which the “soluble on expression in E. coli” value is on record as “not soluble”.

For the sequence “MKNPYVQITDQEQYKKSIRRIPPKDPNIFLIERPTAGEIIALWWTTSSRGKSTDKYIPKYFKRIYRVDMIKQRKLFIKANVISEENNTYVLTELGEMLVHKYFYIIEEHNNSSNDSFNTERRKLADKILYSLGGEI”, the “soluble on expression in E. coli” value is reported as “not soluble”.

“MARAIWKGAISFGLVHIPVALNTAVRTERVDFDWLDKRSMEPVGYKRVNKVTGKEIDKDNIVKGVEFEKGRYVVISEEEIRKARPETTQTIDIFSFVEAGDIPLQHFDTPYYLTPDRRGGKVYALLRETLEKTGKVALATVVLHTRQHLALLRPLDHALVMITLRWPEEVRGLETLELDASVT”: the “soluble on expression in E. coli” value is “not soluble”.

Take “MSRSLLTNETSELDLLDQRPFEQTDFDILKSYEAVVDGLAMLIGSHCEIVLHSLQDLKCSAIRIANGEHTGRKIGSPITDLALRMLHDMTGADSSVSKCYFTRAKSGVLMKSLTIAIRNREQRVIGLLCINMNLDVPFSQIMNTFIPPETPEVGSAVNFASSVEDLVTQTLEFTIEEVNADRNVSNNAKNRQIVLNLYEKGIFDIKDAINQVADRLNISKHTVYLYIRQFKSGDFQGQDK”: the “soluble on expression in E. coli” value is “not soluble”.

On to “GPGSMAGVLHETATTVSYRGALCKLAGVELQGINLSPPQRLCQLELLISREINWLAAVLEEWEEKYMLFTCVPYRGVVDAFTTLLRTIKRHLETENSSKDNEKEWDALLASSITEFQVEVMEIGKGKSY”, for which the “soluble on expression in E. coli” value is on record as “soluble”.

For “MPASYLHHRSVTQQLPIMSTPHTDFFGLTIPFMQLLGVVPEHSGNGTARTRLPARADLVNSRGDIHGGTLMSVLDFTLGAAIRGDTPEVGVATIDMNTSFMSPGRGDLVIETRCLRRGASIAFCEGEIRDSAGELVAKATATFKIIQRRPGLEHHHHHH”, the “soluble on expression in E. coli” value is “soluble”.

Consider “GKKQEPFEQVTIDIEEQHQGSVMEALGIRKGEVKDMIPDGKGRTRLEYVIPSRGLIGFRNEFMTMTSGTGLLYSSFSHYDDVKLGEIGQRKNGVLISNATGKALAYALFGLQERGKLMIEHGVDVYEGQI”, for which the “soluble on expression in E. coli” value is “not soluble”.

With “SKYVDRVIAEVEKKYADEPEFVQTVEEVLSSLGPVVDAHPEYEEVALLERMVIPERVIEFRVPWEDDNGKVHVNTGYRVQFNGAIGPYLGGLRFAPSVNLSIMKFLGFEQAFKDSLTTLPMGGAKGGSDFDPNGKSDREVMRFCQAFMTELYRHIGPDIDVPAGDLGVGARELGYMYGQYRKIVGGFYNGVLTGKARSFGGSLVRPEATGYGSVYYVEAVMKHENDTLVGKTVALAGFGNVAWGAAKKLAELGAKAVTLSGPDGYIYDPEGITTEEKINYMLEMRASGRNKVQDYADKFGVQFFPGEKPWGQKVDIIMPCATQNDVDLEQAKKIVANNVKYYIEVANMPTTNEALRFLMQQPNMVVAPSKAVNAGGVLVSGFEMSQNSERLSWTAEEVDSKLHQVMTDIHDGSAAAAERYGLGYNLVAGANIVGFQKIADAMMAQGIAW”, the “soluble on expression in E. coli” value is recorded as “soluble”.

For “MGSDKIHHHHHHMTKHMTMKTPPIVSRQEWDAAREKMLVKEKATLRAKDALAAERRRMPWMEVDKAYVFEGPNGKASLLDLFEGRRQLIVYRAFFEPGVYGWPDHACRGCSLGADQVGHLAHLNARNTTLAYASRAPQADIVRLKARMGWEMPWYTITDSFDKDFGVDEWHGHNVFIHDGDRVFRTYLINSRGDEQMGTVWSYLDATPLGRQEIWEDSPEGYPQTPLYSWWNWHDNYEAGADKKWAEVAAAGEAAFRDKGE”, the “soluble on expression in E. coli” value is given as “not soluble”.

As to “MGSDKIHHHHHHMYLITSAAMVASELQSEFGPLPPCFLPVGNKRLFHHQLALIPAGERTIITLPEGFTPGPYDSQSLKDYGVELLYLPPTLSLGESIVYALIQLEFADDEPLYILHGDTLFDSLPRQTDCLGLSQVEDNYNWAEFDAQSGTLRPYHAELRPSSELISNGFFSFSAPRTLIRYITQAKGDFIAGLNGYIDDKGLTPITLPHWYDFGHSHTYYQSKSRMTTQRAFNGMAIQGQVVKKFSRNKHKLAAEANWYQSLPGPMRGYIPQLLGCDESPELFGYSIEYLHLTALNELYVFSQLPAFAWRKVLKACCQFLKDASSYSVADAQTLSGLFMDKTLSRLEDFASQSGISVAQENRINGALRPSLLELARISREYLPKDNGRQHLLHGDFCFSNILYDFRTCNIKVIDPRGLDGNDKQTIHGNGLYDIAKLAHSVLGLYDAIIAGYFKAERLGQNLDFSIAITPRREQIMADFVRLMASEFAVSEAELYAMQIQLFLSMLPLHSDRPDRQLGFIGNAYRLYDRLLACTGNPS”, the “soluble on expression in E. coli” value is given as “not soluble”.

Turning to “MNEIHQPLARRVWRSNVDEEMARMAECLKRFPLIAFDTEYPGIIFRTYFDSSSDECYRAMKGNVENTKLIQCGFTLFNAKGEIGGVWEINFSNFGDPSDTRNELSIEFLRRHGLDLQKIRDEGVDMFGYGFFPKLMTVFRSQKHVEFVTFQGAYDFAYFLSILNHGKLPETHGEFATEVVKVFGQVYDTKVMAGFCEGLGEHLGLSKLAQLLQITRVGRAHHAGSDSLMTALVFIKLKHVYEDSRFARGLIYGIGKSNLVAAPAPAPVPEPTLPLMCQQNVASYPVFHNGYVQNYEQPQLVSYDPSGAPWAFCNATGTYVQLTHLPASTFAYPSQTPSATVDYLGPVPNYYNNNACYVVE”, the “soluble on expression in E. coli” value is reported as “soluble”.

On to “MIPQRIKELEAYKTEVTPASVRLSSNEFPYDFPEEIKQRALEELKKVPLNKYPDPEAKELKAVLADFFGVKEENLVLGNGSDELIYYLSIAIGELYIPVYIPVPTFPMYEISAKVLGRPLVKVQLDENFDIDLERSIELIEKEKPVLGYFAYPNNPTGNLFSRGKIEEIRNRGVFCVIDEAYYHYSGETFLEDALKREDTVVLRTLSKIGMASLRVGILIGKGEIVSEINKVRLPFNVTYPSQVMAKVLLTEGREFLMEKIQEVVKERERMYDEMKKIEGVEVFPSKANFLLFRTPYPAHEVYQELLKRDVLVRNVSYMEGLQKCLRVSVGKPEENNKFLEALEESIKSLSSSL”, for which the “soluble on expression in E. coli” value is “soluble”.

With “MSLDVINKYGTPLKLSYLPKISSQIQKAKQWFGEAITNNNYSGTYTYCYCTKSSHFSFVLNEALKNDIHIETSSAYDIPIVRILFENNKITKATNVICNGYKRPEYTDYICDLINEGFNCTPILDNLDEITAYEKGIETSCNLGIRLATDEEPKFEFYTSRLGFRYNDVVQFYKEKIEPNPKFKLKMLHFFINTGIKDTTYYWSELSRFVHMYCTMKKINPDMDSIDIGGGWPIKTSVHFEYDYKYMADQIVKTIKKVCDEEGVPTPNIFTEFGSFTVGESGAAVYSVLGSKLQNDKEEWYMIDSSFITTLPDVWGLSQKYLLLAVNGWDKPYKKVKLGGITCDSMDYYNSEAHQNLVFMPELDEKEPTYIGFFHTGAYQESLGGYGGIQHCLVPAPKHILIDKDADGNFSYNLFAPEQTKESMLKILGYKAEGHHHHHH”, the “soluble on expression in E. coli” value is listed as “soluble”.

Turning to “MIADDPHLELRLAASERDLRAAQRLRYTVFVEELGGDGDLVDHAERLERDEFDDLCDHLLLIDRRRDAAALEDVVGVYRLLPGERAAGAGRFYCDSEYDLDPLRASGRRVLELGRSCVHPDYRGGAAVFLLWSGLADYALAQRTELLFGVASFHGTDIEALAEPLSYLHAFHLAPEELRVRARSEGGQRMDLIPPERIDRRAAMLAMPPLIKAYLRLGGVVGEGAWIDRAFNTTDVCLLMDTARMSARHRDFYARRTVSAE”, the “soluble on expression in E. coli” value is listed as “not soluble”.

On to “MGSDKIHHHHHHMPANPLPDDDLADSDTDDTGSGEHGEGGEKVRSGIQSIEVGFRLLEVLTSEPRAMMLRDLAQRAGMSPAKAHRYLVSFSRLGVVSQDPVSGRYELGGFALQMGLARLARVDGVKLARIALTELRDRVDQTVGIAVWGNQGPTIVHWMESSHPAKASLKLGDVMPLLGSATGLLFAAYLPRSKTAAMLERELADTRRSPHHGGPRTLEEVDAVLADVRAHQAARVEGMLLPTIHAFCMPVFDAVGELALAIVALGQEGTFDIAWGGEMDTALRACAQKLSYELGYSPDARDA”, for which the “soluble on expression in E. coli” value is reported as “not soluble”.

Values taken from the DeepSol protein solubility set.
